From publication PMC9507130

Biological target: Vrl1-Envy (S. cerevisiae)
Assay: co-IP; yeast spheroplast lysates (0.1% Tween-20, 50 mM HEPES, 1 mM EDTA, 50 mM NaCl, pH 7.4); rabbit anti-GFP or anti-HA, Protein A Sepharose, 4 °C; western blot; Vrl1 over-expressed in some panels; vin1Δ strain for Vps5-3HA with Vrl1-Envy

B1: Vin1-3HA (natural protein)
chain: MENDKASHASPSIGVNEFVVQGEISIDDSERSVKSVSVSISDDEDSKTDVQDNMATPSTRSKFQTDLAIDNRLLEKDPKYKKLFTEKRRRRRPESCINLMTKGKGTGQKDNINDQIFSLRILPGSDLNSLKDSLWIIKISTQPDVEKTIARAFSDFYWLYHQLQNNHWGKTIPPPTRSNILVEKDEFAINHLFMIRNNEKYDPIFNFKPEYIISLQLMAMIKHIFNDKVLRLDSNFIDFISWDDDLPESLQIVVDDSTFTGDKILMTSSQFRELKEFHKQSKKVESITNSHASLIPVTELTEIYISPTKLFSRKDYQRLFQPQSTDNTFNNNDPLIQEWIPKSKTLFTSLSFGSSAPTYQEASTEIQACHDWVSISKEQWKQLLYHVLQYIVDEAVKVNSVINEFTECLKQISLDEVIRANSELFLKFSKLNESFLKKFKGASRQDILKLIILFDENVRFCESFESILNQRLKLGKILSIIEVDLDKKKNFLDKLSPGNNNSNNEDLKIRTAEDEYRIVLKRYNRVKQSWEKIMEDILNERKEFEKREAAEVNSCLKSIRDLNMDEKKHYLQLWQDFVPDEHISQ
percent recovery of Vin1 in the co-IP: 64%
